Reference: patent publication US20070202045A1

Target: Rabbit SA (rabbit) (UniProt P49065)
Test: competition ELISA (SA08b binding to rabbit albumin)

Chain of Rabbit SA (rabbit) (P49065 25-608): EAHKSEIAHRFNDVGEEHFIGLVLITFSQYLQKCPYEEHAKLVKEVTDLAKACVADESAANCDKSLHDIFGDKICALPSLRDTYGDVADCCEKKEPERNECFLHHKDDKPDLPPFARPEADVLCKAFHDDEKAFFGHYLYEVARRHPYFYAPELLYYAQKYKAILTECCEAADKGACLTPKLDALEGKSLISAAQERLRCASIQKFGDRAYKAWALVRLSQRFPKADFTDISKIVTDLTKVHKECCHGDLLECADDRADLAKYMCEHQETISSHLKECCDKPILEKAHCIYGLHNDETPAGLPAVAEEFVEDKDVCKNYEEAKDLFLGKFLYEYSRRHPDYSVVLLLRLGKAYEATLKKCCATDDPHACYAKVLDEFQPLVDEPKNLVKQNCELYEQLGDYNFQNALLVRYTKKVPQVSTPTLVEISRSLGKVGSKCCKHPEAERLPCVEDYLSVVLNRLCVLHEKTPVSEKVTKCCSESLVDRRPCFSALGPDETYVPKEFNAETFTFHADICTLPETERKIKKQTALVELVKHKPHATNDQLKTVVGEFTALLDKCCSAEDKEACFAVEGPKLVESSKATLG

IC50: 10 nM
Substance: dia4D5
